{"source": "paper PMC10315710", "about": "“Diacylglycerol kinase ζ interacts with sphingomyelin synthase 1 and sphingomyelin synthase‐related protein via different regions” (FEBS Open Bio, 2023)", "binders": {"B1": {"name": "GST‐SMSr‐NT (domain or fragment, human, UniProt Q96LT4 1-151, looked up)", "chain": "MAGPNQLCIRRWTTKHVAVWLKDEGFFEYVDILCNKHRLDGITLLTLTEYDLRSPPLEIKVLGDIKRLMLSVRKLQKIHIDVLEEMGYNSDSPMGSMTPFISALQSTDWLCNGELSHDCDGPITDLNSDQYQYMNGKNKHSVRRLDPEYWK", "notes": "SMSr, N-terminal cytosolic region (contains SAMD); SMSr-NT is defined as aa 1–151; also called GST-fused SMSr‐NT; GST-tagged SMSr‐NT; source: bacterially expressed, purified (glutathione-Sepharose beads); not shown: GST, N-terminal, kept"}, "B2": {"name": "GST‐SMS1‐CT (domain or fragment, human, UniProt Q86VZ5 348-413, looked up)", "chain": "HTMANQQVLKEASQMNLLARVWWYRPFQYFEKNVQGIVPRSYHWPFPWPVVHLSRQVKYSRLVNDT", "notes": "SMS1, C-terminal cytosolic region; SMS1-CT is defined as aa 348–413; also called GST-fused SMS1‐CT; GST-tagged SMS1‐CT; source: bacterially expressed, purified (glutathione-Sepharose beads); not shown: GST, N-terminal, kept"}}, "molecular_target": "T1, Twin‐Strep (TS)‐tagged DGKζ (TS‐DGKζ) (human, UniProt Q13574 1-928)", "T1 construct": "full-length (FL) DGKζ (DGKζ1, 104 kDa), human; no cleavage is reported and the protein is detected by anti-TS; also called purified DGKζ; source: HEK293 cells, purified (Strep-Tactin XT beads, without detergents); not shown: Twin-Strep, N-terminal, kept", "T1 sequence (Q13574 whole entry)": "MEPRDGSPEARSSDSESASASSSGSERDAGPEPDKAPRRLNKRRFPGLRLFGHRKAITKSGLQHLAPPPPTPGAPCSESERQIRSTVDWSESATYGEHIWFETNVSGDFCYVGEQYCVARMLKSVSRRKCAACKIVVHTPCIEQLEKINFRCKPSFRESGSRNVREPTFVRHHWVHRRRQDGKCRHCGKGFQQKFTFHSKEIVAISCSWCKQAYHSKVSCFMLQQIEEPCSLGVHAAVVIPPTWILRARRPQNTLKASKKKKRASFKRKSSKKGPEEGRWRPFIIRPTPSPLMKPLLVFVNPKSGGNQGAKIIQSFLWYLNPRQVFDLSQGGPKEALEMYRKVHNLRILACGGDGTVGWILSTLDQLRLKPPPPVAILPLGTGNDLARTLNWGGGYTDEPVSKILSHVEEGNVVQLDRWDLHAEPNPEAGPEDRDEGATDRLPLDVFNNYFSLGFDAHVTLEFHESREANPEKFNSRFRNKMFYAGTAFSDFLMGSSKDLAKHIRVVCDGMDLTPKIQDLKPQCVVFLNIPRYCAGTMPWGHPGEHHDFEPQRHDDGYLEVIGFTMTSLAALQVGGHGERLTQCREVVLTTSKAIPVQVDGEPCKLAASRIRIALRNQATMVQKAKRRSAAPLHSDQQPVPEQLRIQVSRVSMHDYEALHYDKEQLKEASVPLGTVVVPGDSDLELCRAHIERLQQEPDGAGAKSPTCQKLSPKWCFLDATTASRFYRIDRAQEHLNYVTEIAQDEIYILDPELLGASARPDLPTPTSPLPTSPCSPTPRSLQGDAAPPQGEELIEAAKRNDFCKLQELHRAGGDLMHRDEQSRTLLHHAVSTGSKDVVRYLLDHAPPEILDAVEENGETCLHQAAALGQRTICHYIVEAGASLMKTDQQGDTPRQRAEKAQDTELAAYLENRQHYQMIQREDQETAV", "test": "pull-down; purified GST-SMS1-CT or GST-SMSr-NT on glutathione-Sepharose beads, purified Twin-Strep-tagged DGKζ added for 2 h at 4 °C; 20 mM Tris-HCl pH 7.5, 150 mM NaCl, 1 mM EDTA, 0.1% Triton X-100; western blot with anti-GST and anti-TS", "conditions": "both partners purified", "data": [{"binder": "B1", "values": [{"measurement": "binding result", "result": "binds"}]}, {"binder": "B2", "values": [{"measurement": "binding result", "result": "binds"}]}]}
